Data reported in patent publication US20070207507A1.
Bridges are numbered along the chain shown (N, C = ends). Where no end group is shown, it is not given here.

B1: phage clone A3-21 (f88-4/Cys6 phage displaying a 16 mer cysteine-constrained peptide in pVIII) (peptide)
peptide: LKNYCRKCSNRCTPTG
modifications: disulfide (positions not given here); also: displayed on phage, cysteine-constrained, 99mTc-labelled
B2: phage clone A3-19 (f88-4/Cys6 phage displaying a 16 mer cysteine-constrained peptide in pVIII) (peptide)
peptide: NLIWCRKEFARCTSDM
modifications: disulfide 5-12 (inferred); also: displayed on phage, cysteine-constrained, 99mTc-labelled
B3: phage clone A3-10 (f88-4/Cys6 phage displaying a 16 mer cysteine-constrained peptide in pVIII) (peptide)
peptide: NPGTCKDKWIECLLNG
modifications: disulfide 5-12 (inferred); also: displayed on phage, cysteine-constrained, 99mTc-labelled in binding assays
B4: control phage clone A3-12 (f88-4/Cys6 phage displaying a 16 mer cysteine-constrained peptide in pVIII) (peptide)
peptide: MNYYCHQTTKTCRTHS
modifications: disulfide 5-12 (inferred); also: displayed on phage, cysteine-constrained, 99mTc-labelled

Assays:
myeloperoxidase [1] = experiment: 99mTc-phage incubated with 125I-myeloperoxidase, separated on a spin column / Sepharose 6B column
TAG-72 = experiment: 99mTc-labeled phage on LS-174T colon cancer cells expressing TAG-72
myeloperoxidase [2] = experiment: SPR (Biacore 1000), biotinylated myeloperoxidase on a streptavidin chip, peptide at 1 uM, fitted curve
myeloperoxidase [3] = experiment: SE-HPLC on a Superose-12 column, 2 hours incubation
myeloperoxidase [4] = experiment: SE-HPLC on a Superose-12 column, 5 min incubation

Sequence of myeloperoxidase (P05164 165-745): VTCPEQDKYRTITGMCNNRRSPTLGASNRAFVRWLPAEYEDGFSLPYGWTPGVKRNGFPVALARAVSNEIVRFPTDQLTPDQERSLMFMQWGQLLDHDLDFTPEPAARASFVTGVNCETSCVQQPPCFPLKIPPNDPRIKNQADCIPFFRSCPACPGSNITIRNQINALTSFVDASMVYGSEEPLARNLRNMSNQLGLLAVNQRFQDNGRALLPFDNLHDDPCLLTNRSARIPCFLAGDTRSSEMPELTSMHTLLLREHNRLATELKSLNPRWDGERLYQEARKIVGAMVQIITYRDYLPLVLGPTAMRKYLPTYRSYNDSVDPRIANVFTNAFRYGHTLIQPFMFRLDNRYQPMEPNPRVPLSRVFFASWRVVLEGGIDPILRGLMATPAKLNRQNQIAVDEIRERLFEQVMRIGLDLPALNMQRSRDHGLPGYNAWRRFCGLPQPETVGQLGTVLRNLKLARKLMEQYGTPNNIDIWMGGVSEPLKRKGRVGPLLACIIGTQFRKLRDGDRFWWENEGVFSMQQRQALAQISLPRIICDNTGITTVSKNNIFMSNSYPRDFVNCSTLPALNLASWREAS

Row | Binder | Relative Binding (% bound after subtraction of control phage MPO-4) (myeloperoxidase [1]) | Relative Binding (fold over control phage A3-12) (TAG-72) | further results
1 | TVMLCNPMEQGCRWMC (disulfide 5-12; also: phage labelled with 99mTc via MAG3) [phage clone MPO-15 (f88-4/Cys6 phage displaying a 16 mer cysteine-constrained peptide in pVIII)] | 4.5% | – | –
2 | B1 | – | 1 fold | –
3 | RSGQCHDDTWNCLACVGGSGGGC (also: cysteine-constrained, Cys pairing not given here) [MPO-17 twenty-three mer synthetic polypeptide] | – | – | Kd (myeloperoxidase [2]): 900 nM; UV peak for the enzyme, % of total protein after 2 hours incubation (% of total protein) (myeloperoxidase [3]): 46; UV peak for the enzyme, % of total protein at 5 min of incubation (% of total protein) (myeloperoxidase [4]): 16
4 | B2 | – | 1.5 fold | –
5 | B3 | – | 4.3 fold | –
6 | AMPVCSLDRKACTAYQ (disulfide 5-12; also: phage labelled with 99mTc via MAG3) [phage clone MPO-1 (f88-4/Cys6 phage displaying a 16 mer cysteine-constrained peptide in pVIII)] | 3.9% | – | –
7 | HVLGCSYATNSCAHNA (disulfide 5-12; also: phage labelled with 99mTc via MAG3) [phage clone MPO-6 (f88-4/Cys6 phage displaying a 16 mer cysteine-constrained peptide in pVIII)] | 5.8% | – | –
8 | B4 | – | – | Relative Binding (the control phage, the reference itself) (TAG-72): 1 fold
9 | RSGQCHDDTWNCLACV (disulfide 5-12; also: phage labelled with 99mTc via MAG3) [phage clone MPO-17 (f88-4/Cys6 phage displaying a 16 mer cysteine-constrained peptide in pVIII)] | 8% | – | –
